According to the supplement of paper PMC12764529:
± gives the half width of the 95% confidence interval.

Experiments:
[1] = folding stability dG unfold from trypsin proteolysis; higher = more stable
How it was run: (§1)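 Digests were run with trypsin and chymotrypsin at 11 concentrations in threefold dilutions, plus a no-protease condition, on designed mini-proteins in a PA-tagged cDNA display construct. The mini-proteins were under 80 residues, had no cysteine, and were kept only when AlphaFold2 dimer inter-PAE was above 15. After sequencing, Bayesian fitting of the counts gave K50, from which unfolding free energy was derived against a sequence-predicted unfolded-state K50 and a shared folded-state K50, per protease or combined.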

[2] = folding stability dG unfold (combined trypsin and chymotrypsin); higher = more stable
How it was run: as §1

[3] = folding stability dG unfold from chymotrypsin proteolysis; higher = more stable
How it was run: as §1

SAGGMPKPVTLPAVIELGAGPAIAVEEFPETGKLVFVFPPTHRIFVFDPNGKLVAEVDVPPDVPVSAVSAGG [r13_507_TrMRF]
folding stability dG unfold [1]: 0.901 ± 0.053 kcal/mol | folding stability dG unfold [2]: 0.931 ± 0.15 kcal/mol | folding stability dG unfold [3]: 0.973 ± 0.31 kcal/mol

SAGGMPKTITVERTLDVDPAVLASTTPEELVARVVEELRAEGVPISSVDPQTITRGATTVTVRVTLLESAGG [r13_432_JUSTAS]
folding stability dG unfold [1]: 1.662 ± 0.014 kcal/mol | folding stability dG unfold [2]: 2.08 ± 0.029 kcal/mol | folding stability dG unfold [3]: 2.322 ± 0.023 kcal/mol

SAGGMPPDARKLIREIAQDFGMSDIEPDEEGHVRINMPNPMMIQVDVENGEPKIKIYNNNKWREIPISAGGS [r16_296_TrROS]
folding stability dG unfold [1]: 0.355 ± 0.079 kcal/mol | folding stability dG unfold [2]: 0.437 ± 0.13 kcal/mol | folding stability dG unfold [3]: 0.411 ± 0.31 kcal/mol

SAGGMPPGQVVRLRLERVSPTWVRLYFPETGEVLYFPVRPDATLAEAEAIARELAERLGYPVEIETVSAGGS [r16_446_TrMRF]
folding stability dG unfold [1]: 3.76 ± 0.077 kcal/mol | folding stability dG unfold [2]: 3.8 ± 0.07 kcal/mol | folding stability dG unfold [3]: 3.779 ± 0.014 kcal/mol

SAGGMPPVVLEYEIDIKPDPNETLEDVLEKAEEFVEELKEAFPELDLKEVKVEVDPEKGKVKITVVFPSAGG [r13_1011_TrMRF]
folding stability dG unfold [1]: 1.77 ± 0.11 kcal/mol | folding stability dG unfold [2]: 1.92 ± 0.12 kcal/mol | folding stability dG unfold [3]: 1.95 ± 0.14 kcal/mol

SAGGMPREVAKEMIENDKDAKVTFTIYRFPDGPVPSVTVEVIEADVKDPDAFLESVPEGWLVLVEPASAGGS [r16_116_TrMRF]
folding stability dG unfold [1]: 0.245 ± 0.13 kcal/mol | folding stability dG unfold [2]: 0.769 ± 0.085 kcal/mol | folding stability dG unfold [3]: 1.17 ± 0.11 kcal/mol

SAGGMPVPVTFPFAGADEVIAFATALEELVNAPVGLTLISPSGEEREVGDPDSIVDEDGFTVRVTVPASAGG [r13_620_TrMRF]
folding stability dG unfold [1]: 1.38 ± 0.015 kcal/mol | folding stability dG unfold [2]: 0.921 ± 0.039 kcal/mol | folding stability dG unfold [3]: -0.382 ± 0.16 kcal/mol

SAGGMPVTLEIVLPNLHDVLGPEFFDALKNITVPNGTPIKKITVKPIGDKTVILIEVDSPEDAKDILGSAGG [r13_269_TrMRF]
folding stability dG unfold [1]: 1.44 ± 0.12 kcal/mol | folding stability dG unfold [2]: 1.58 ± 0.15 kcal/mol | folding stability dG unfold [3]: 1.66 ± 0.17 kcal/mol

SAGGMPVTTTPRTVELPDRRVEVIDRTFPNGPPRTTVVVRDPAGNLVATREFTGPEWEEWLRAEGALLSAGG [r19_90_JUSTAS]
folding stability dG unfold [1]: -0.606 ± 0.17 kcal/mol | folding stability dG unfold [2]: 0.707 ± 0.048 kcal/mol | folding stability dG unfold [3]: 1.06 ± 0.035 kcal/mol

SAGGMRIRIVVPPEMSPEEIAELLKKLFPDYEIKVEVKTVKVKVKDEETGEEYEVEVLVVEIEIKEKSAGGS [r16_828_TrROS_Hall]
folding stability dG unfold [1]: 3.61 ± 0.18 kcal/mol | folding stability dG unfold [2]: 3.74 ± 0.14 kcal/mol | folding stability dG unfold [3]: 3.78 ± 0.12 kcal/mol

SAGGMRIYIPPELPEEKVEEIREEAEEEFPVEVTLERFPEPGYVVLEFEGEEEELYRRIEEKIREKGSAGGS [r16_227_TrMRF]
folding stability dG unfold [1]: 1.17 ± 0.16 kcal/mol | folding stability dG unfold [2]: 1.55 ± 0.41 kcal/mol | folding stability dG unfold [3]: 1.42 ± 0.35 kcal/mol

SAGGMRPMVVTVRYPDGSVQTLVADYDPDTDVIRFPFPSDGTERDIPAGEWREDPDYQVLSETPLSLESAGG [r13_994_JUSTAS]
folding stability dG unfold [1]: 1.58 ± 0.045 kcal/mol | folding stability dG unfold [2]: 0.967 ± 0.052 kcal/mol | folding stability dG unfold [3]: 0.0211 ± 0.11 kcal/mol

SAGGMSALRIVAENLPEDARVVLPDGRVFPPGVELELPLEADLDVVVALDEDGRVHHVERVPLDRPLLSAGG [r13_441_TrMRF]
folding stability dG unfold [1]: -0.352 ± 0.16 kcal/mol | folding stability dG unfold [2]: -0.389 ± 0.099 kcal/mol | folding stability dG unfold [3]: -0.501 ± 0.21 kcal/mol

SAGGMSEEVRKLAEELAKKLNIEKVEVLPDGTVRITLKNGKKIEIKVEKVEVKEVKVEVEVEEVEEESAGGS [r16_296_TrROS_Hall]
folding stability dG unfold [1]: 2.55 ± 0.27 kcal/mol | folding stability dG unfold [2]: 3.62 ± 0.49 kcal/mol | folding stability dG unfold [3]: 4.11 ± 0.28 kcal/mol

SAGGMSVSITVTVTPTEVRVVENPTNGVNTAFTETTVTVTVNHPSSVSPEEKAALIAAVKAANPGAASAGGS [r8_306_JUSTAS]
folding stability dG unfold [1]: 2.86 ± 0.57 kcal/mol | folding stability dG unfold [2]: 2.43 ± 0.49 kcal/mol | folding stability dG unfold [3]: 1.92 ± 0.57 kcal/mol

SAGGMTAEEIAEALRERLRELFPPGAEIEVDEIEVEEVEVEEEPVELSEEERERVEKMPEEERERLLSAGGS [r16_272_TrROS_Hall]
folding stability dG unfold [1]: 1.27 ± 0.22 kcal/mol | folding stability dG unfold [2]: 0.635 ± 0.33 kcal/mol | folding stability dG unfold [3]: -0.0968 ± 0.18 kcal/mol

SAGGMTASSTTLPPSGITSQTTTDPATGVTTTTTRYPDGTVTTTTTTALPPPAAATTTTTTALPGSAAASAG [r5_766_JUSTAS]
folding stability dG unfold [1]: 1.93 ± 0.12 kcal/mol | folding stability dG unfold [2]: 1.77 ± 0.086 kcal/mol | folding stability dG unfold [3]: 1.68 ± 0.07 kcal/mol

SAGGMTETITGEFDDEEEAIAYAKKIVKEKYPNKNVTMEIETTYDPKTGKYKVTATITIPDEGEEHHSAGGS [r8_17_JUSTAS]
folding stability dG unfold [1]: 4.72 ± 0.35 kcal/mol | folding stability dG unfold [2]: 5.94 ± 0.37 kcal/mol | folding stability dG unfold [3]: 5.61 ± 0.18 kcal/mol
